Results reported in patent US20240158474A1 (SINO BIOLOGICAL, published 2024).

Assays:
Assay in all cases: indirect ELISA on coated VLP
HPV58 VLP protein = target: T1, HPV58 VLP protein (human papillomavirus type 58, UniProt P26535 27-499)
T1 construct: Complete VLP protein; no limits of the construct printed, whole entry named; also called P58SHELL
T1 sequence: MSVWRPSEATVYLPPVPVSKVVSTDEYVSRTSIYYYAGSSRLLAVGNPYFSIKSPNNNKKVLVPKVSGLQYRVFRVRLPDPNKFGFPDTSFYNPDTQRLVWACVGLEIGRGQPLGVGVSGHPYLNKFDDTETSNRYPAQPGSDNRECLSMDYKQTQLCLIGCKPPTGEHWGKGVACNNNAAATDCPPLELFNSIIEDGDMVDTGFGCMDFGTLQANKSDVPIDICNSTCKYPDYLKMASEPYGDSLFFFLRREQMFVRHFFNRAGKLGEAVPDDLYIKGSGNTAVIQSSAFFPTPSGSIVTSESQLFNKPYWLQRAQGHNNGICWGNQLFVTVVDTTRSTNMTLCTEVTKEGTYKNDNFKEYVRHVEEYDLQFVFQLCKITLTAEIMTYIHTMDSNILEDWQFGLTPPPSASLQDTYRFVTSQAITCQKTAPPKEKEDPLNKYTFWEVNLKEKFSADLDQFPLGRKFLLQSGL

HPV52 VLP protein = target: T2, HPV52 VLP protein (human papillomavirus type 52, UniProt Q05138 27-504)
T2 construct: Complete VLP protein; no limits of the construct printed, whole entry named; also called P52SHELL
T2 sequence: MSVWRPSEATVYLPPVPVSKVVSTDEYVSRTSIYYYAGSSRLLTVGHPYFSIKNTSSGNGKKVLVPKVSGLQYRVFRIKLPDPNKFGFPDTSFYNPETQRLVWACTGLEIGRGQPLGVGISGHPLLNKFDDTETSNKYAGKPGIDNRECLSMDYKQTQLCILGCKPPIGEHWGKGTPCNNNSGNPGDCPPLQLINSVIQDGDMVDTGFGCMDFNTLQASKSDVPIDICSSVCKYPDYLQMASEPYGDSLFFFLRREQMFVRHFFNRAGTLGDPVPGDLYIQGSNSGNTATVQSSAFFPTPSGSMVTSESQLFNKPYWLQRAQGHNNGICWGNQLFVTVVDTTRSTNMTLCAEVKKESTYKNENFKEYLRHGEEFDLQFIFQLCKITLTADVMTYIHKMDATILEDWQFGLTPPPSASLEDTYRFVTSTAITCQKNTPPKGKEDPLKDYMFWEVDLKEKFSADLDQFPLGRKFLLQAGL

HPV11 VLP protein = target: T3, HPV11 VLP protein (human papillomavirus type 11; human …, UniProt P04012 1-470; P06416 474-499)
T3 construct: range 1-470;range 474-499; Complete VLP protein used as coating protein
T3 sequence: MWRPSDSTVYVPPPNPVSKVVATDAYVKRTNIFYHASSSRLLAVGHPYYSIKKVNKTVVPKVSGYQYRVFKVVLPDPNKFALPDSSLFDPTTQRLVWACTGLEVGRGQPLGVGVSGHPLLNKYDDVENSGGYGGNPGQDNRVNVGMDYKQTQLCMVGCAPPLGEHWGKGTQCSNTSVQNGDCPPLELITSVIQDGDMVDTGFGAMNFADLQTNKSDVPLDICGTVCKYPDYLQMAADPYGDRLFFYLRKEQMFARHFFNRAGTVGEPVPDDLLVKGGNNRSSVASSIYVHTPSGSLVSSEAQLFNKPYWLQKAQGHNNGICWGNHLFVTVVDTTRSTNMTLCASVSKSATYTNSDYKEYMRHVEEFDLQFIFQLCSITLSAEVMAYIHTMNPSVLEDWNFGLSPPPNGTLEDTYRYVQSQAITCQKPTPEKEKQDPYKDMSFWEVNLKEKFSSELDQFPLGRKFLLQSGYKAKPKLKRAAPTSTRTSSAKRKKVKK

B1: monoclonal antibody HPV6-R003 (antibody, V domains shown)
VH: QQQLEESGGGLVKPGGTLTLTCKASGIDLSNYYMCWVRQAPGKGLEWIGCIYTGSGRTYYASWAKGRFTISKASSTTVTLQMTSLTAADTATYFCARDYLGWRASNIWGPGTLVTVSS
VL: ELVMTQTPSSVSAAVGGTVTINCQASQSVYSNNLVWYQQKPGQPPKLLIYGASTLASGVPSRFKGSGSGTQFTLTISDVVCDDAATYYCGGYVSDSTDGTAFGGGTEVVVKG
notes: here built from variable plus constant region so that the signal peptides are left out; In the sandwich ELISA the same antibody is used as coating antibody and, labelled with horseradish peroxidase, as detection antibody; also called anti-HPV6 L1 protein antibody
HPV58 VLP protein
  binding result: no binding (tested: antibody 10 ng/mL; coating 2 µg/mL)
HPV52 VLP protein
  binding result: no binding (tested: antibody 10 ng/mL; coating 2 µg/mL)
HPV11 VLP protein
  binding result: no binding (tested: antibody 10 ng/mL; coating 2 µg/mL)
